Residue numbers refer to the chain shown, from its start. Where no end group is shown, it is not given here.

Results on four molecules are retold here after patent US20230144459A1 (BIOND BIOLOGICS, published 2023).

The target of assay [1] is T1, membranal human CD28 (human, UniProt P10747 19-220).
T1 construct: Full-length human CD28 on stably transfected HEK293 cells, or native CD28 on human CD4 T cells and PBMC in the shedding assays; Homodimer through Cys 141; also called mCD28; membrane CD28
Put plainly: flow cytometry on HEK293 cells over expressing human CD28; percent reduction of median CD86-Fc (2 µg/mL) signal; competitor CD86-Fc.

In assay [2] the target is T1, membranal human CD28. Put plainly: cell-based or functional assay.
For assay [3], the target named is T2, L145K CD28 stalk region dimeric peptide (human, C-terminal biotin; dimeric).
T2 construct: also called CD28 stalk region peptide with mutation at the cleavage site
T2 peptide: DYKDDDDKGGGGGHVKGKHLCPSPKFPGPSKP
Put plainly: direct ELISA on biotinylated dimeric peptide on neutravidin plates. (In general: An ELISA detects its analyte on a solid surface through an enzyme-linked reagent.)

Assay [4] addresses T3, c-Myc conjugated and biotinylated human CD28 stalk region dimeric peptide (wild-type) (human, C-terminal biotin; dimer by a disulfide linkage at Cysteine 141 (CD28 numbering)).
T3 construct: N-terminal tag, five glycines, then His134-Pro152 of human CD28; also called substrate peptide; wild-type CD28 stalk region dimeric peptide
T3 peptide: T2 peptide with K25L
Put plainly: direct ELISA, wild-type biotinylated dimeric stalk peptide on neutravidin plates.

In assay [5] the target is T4, BSA conjugated CD28 stalk region dimeric peptide (human, also: dimer, conjugated to BSA via C-terminal Lys).
T4 construct: also called stalk region peptide
T4 peptide: GKHLCPSPLFPGPSKPK
Put plainly: ELISA, BSA conjugated dimeric peptide on plate, serial dilution of M9.

B1: VHH clone 2A1 (VHH)
VHH: EVQLVESGGGLVQAGESLRLSCAASGSIASINAMGWYRQAPGSQRELVAAISGGGDTYYADSVKGRFTISRDNAKTTVYLQMNSLRPEDTAVYYCVVDLYGSDYWDWGQGTQVTVSSAAAHHHHHH
notes: VHH with AAA linker and C-terminal His6, made in CHO cells; also called VHH #2A1; 2A1-6H
Consider B1, for which the “Blocking CD86 binding (%)” value in the assay with membranal human CD28 [1] came to 8.2%. Further, in the assay with membranal human CD28 [2], the “Inhibition (%) of CD28 shedding” value worked out at 58.9%. Further, the binding result in assay [3] is recorded as “no binding (tested: 0.2-5 µg/mL)”; in assay [4], “binds”.

B2: VHH clone 4A4 (VHH)
VHH: EVQLVESGGGLVQAGGSLRLSCAASGSLFSINAMAWYRQAPGKQRELVAAITSSGSTNYANSVKGRFTVSRDNAKNTMYLQMNSLKPEDTAVYYCVVDEYGSDYWIWGQGTQVTVSS
notes: VHH with AAA linker and C-terminal His6, made in CHO cells
On to B2, for which the binding result is listed as “no binding (tested: 0.2-5 µg/mL)” in assay [3] and “binds” in assay [4].

B3: antibody M9 (antibody, V domains shown)
VH: DVKLVESGGGLVKLGGSLKLSCVASGFTFSSYYMSWVRQTPEKRLEWVATISDGGDNTYYAGTVTGRFTISRDFAKNTLYLQMNSLTSEDTAVYYCARIHWPYYFDSWGQGTTLTVSS
VL: QFVLSQSPAILSASPGEMLTMTCRASSSVSYMNWYQQKPGSSPKPWIYATSDLASGVPARFSGSGSGTSYSLTISRVEAEDAATYYCQQWSSHPPTFGGGTKLEIR
notes: Full-size mouse antibody from CD1 mice immunised with the dimeric stalk peptide, detected with anti mouse IgG; also called clone M9; anti-cleavage antibody M9
Take B3: the binding result in assay [5] is recorded as “binds”.

B4: VHH clone 4A1 (VHH)
VHH: QVQLVESGGGLVQAGGSLRLSCAASGSIFSINAMGWYRQAPGKQRERVAAITSGGSTNYADSVKGRFTISRDNAKNTVYLQMNNLEPRDAGVYYCVVDLYGEDYWIWGQGTQVTVSS
notes: as for B2
In the case of B4, the binding result in assay [3] is on record as “no binding (tested: 0.2-5 µg/mL)”; in assay [4] it was “binds”.
